In paper PMC5768893:

Columns and labels:
[1] = western blot and immunostaining, anti-pT410, endogenous PKCζ; details: glycan lost; control: control (Egfp shRNA) ESCs
[2] = western blot anti-pT410 after FGF4 stimulation; details: glycan lost; control: control cells stimulated with FGF4
[3] = western blot anti-pT410 during PrE differentiation; details: glycan gained; control: PrE day 4 cells without inhibitor
[4] = anti-FLAG IP, anti-pT410 blot; details: glycan gained; control: untreated PKCζ-FLAG cells
[5] = western blot of phosphorylated PKCζ-FLAG; details: glycan lost; control: wild-type PKCζ-FLAG

| Protein | other: PKCζ Thr-410 phosphorylation [1] | other: PKCζ Thr-410 phosphorylation [2] | other: PKCζ Thr-410 phosphorylation [3] | other: PKCζ Thr-410 phosphorylation [4] | other: PKCζ phosphorylation [5] |
| --- | --- | --- | --- | --- | --- |
| PKCζ: Ogt KD (protein) parent chain: MPSRTDPKMDRSGGRVRLKAHYGGDILITSVDAMTTFKDLCEEVRDMCGLHQQHPLTLKWVDSEGDPCTVSSQMELEEAFRLVCQGRDEVLIIHVFPSIPEQPGMPCPGEDKSIYRRGARRWRKLYRANGHLFQAKRFNRGAYCGQCSERIWGLSRQGYRCINCKLLVHKRCHVLVPLTCRRHMDSVMPSQEPPVDDKNDGVDLPSEETDGIAYISSSRKHDNIKDDSEDLKPVIDGVDGIKISQGLGLQDFDLIRVIGRGSYAKVLLVRLKKNDQIYAMKVVKKELVHDDEDIDWVQTEKHVFEQASSNPFLVGLHSCFQTTSRLFLVIEYVNGGDLMFHMQRQRKLPEEHARFYAAEICIALNFLHERGIIYRDLKLDNVLLDADGHIKLTDYGMCKEGLGPGDTTSTFCGTPNYIAPEILRGEEYGFSVDWWALGVLMFEMMAGRSPFDIITDNPDMNTEDYLFQVILEKPIRIPRFLSVKASHVLKGFLNKDPKERLGCRPQTGFSDIKSHAFFRSIDWDLLEKKQTLPPFQPQITDDYGLDNFDTQFTSEPVQLTPDDEDVIKRIDQSEFEGFEYINPLLLSAEESV | increases | increases | – | – | – |
| PKCζ: Thiamet G (protein) parent chain: MPSRTDPKMDRSGGRVRLKAHYGGDILITSVDAMTTFKDLCEEVRDMCGLHQQHPLTLKWVDSEGDPCTVSSQMELEEAFRLVCQGRDEVLIIHVFPSIPEQPGMPCPGEDKSIYRRGARRWRKLYRANGHLFQAKRFNRGAYCGQCSERIWGLSRQGYRCINCKLLVHKRCHVLVPLTCRRHMDSVMPSQEPPVDDKNDGVDLPSEETDGIAYISSSRKHDNIKDDSEDLKPVIDGVDGIKISQGLGLQDFDLIRVIGRGSYAKVLLVRLKKNDQIYAMKVVKKELVHDDEDIDWVQTEKHVFEQASSNPFLVGLHSCFQTTSRLFLVIEYVNGGDLMFHMQRQRKLPEEHARFYAAEICIALNFLHERGIIYRDLKLDNVLLDADGHIKLTDYGMCKEGLGPGDTTSTFCGTPNYIAPEILRGEEYGFSVDWWALGVLMFEMMAGRSPFDIITDNPDMNTEDYLFQVILEKPIRIPRFLSVKASHVLKGFLNKDPKERLGCRPQTGFSDIKSHAFFRSIDWDLLEKKQTLPPFQPQITDDYGLDNFDTQFTSEPVQLTPDDEDVIKRIDQSEFEGFEYINPLLLSAEESV | – | – | decreases | decreases | – |
| PKCζ: PUGNAc (protein) parent chain: MPSRTDPKMDRSGGRVRLKAHYGGDILITSVDAMTTFKDLCEEVRDMCGLHQQHPLTLKWVDSEGDPCTVSSQMELEEAFRLVCQGRDEVLIIHVFPSIPEQPGMPCPGEDKSIYRRGARRWRKLYRANGHLFQAKRFNRGAYCGQCSERIWGLSRQGYRCINCKLLVHKRCHVLVPLTCRRHMDSVMPSQEPPVDDKNDGVDLPSEETDGIAYISSSRKHDNIKDDSEDLKPVIDGVDGIKISQGLGLQDFDLIRVIGRGSYAKVLLVRLKKNDQIYAMKVVKKELVHDDEDIDWVQTEKHVFEQASSNPFLVGLHSCFQTTSRLFLVIEYVNGGDLMFHMQRQRKLPEEHARFYAAEICIALNFLHERGIIYRDLKLDNVLLDADGHIKLTDYGMCKEGLGPGDTTSTFCGTPNYIAPEILRGEEYGFSVDWWALGVLMFEMMAGRSPFDIITDNPDMNTEDYLFQVILEKPIRIPRFLSVKASHVLKGFLNKDPKERLGCRPQTGFSDIKSHAFFRSIDWDLLEKKQTLPPFQPQITDDYGLDNFDTQFTSEPVQLTPDDEDVIKRIDQSEFEGFEYINPLLLSAEESV | – | – | decreases | decreases | – |
| PKCζ: T408A (protein) parent chain: MPSRTDPKMDRSGGRVRLKAHYGGDILITSVDAMTTFKDLCEEVRDMCGLHQQHPLTLKWVDSEGDPCTVSSQMELEEAFRLVCQGRDEVLIIHVFPSIPEQPGMPCPGEDKSIYRRGARRWRKLYRANGHLFQAKRFNRGAYCGQCSERIWGLSRQGYRCINCKLLVHKRCHVLVPLTCRRHMDSVMPSQEPPVDDKNDGVDLPSEETDGIAYISSSRKHDNIKDDSEDLKPVIDGVDGIKISQGLGLQDFDLIRVIGRGSYAKVLLVRLKKNDQIYAMKVVKKELVHDDEDIDWVQTEKHVFEQASSNPFLVGLHSCFQTTSRLFLVIEYVNGGDLMFHMQRQRKLPEEHARFYAAEICIALNFLHERGIIYRDLKLDNVLLDADGHIKLTDYGMCKEGLGPGDTTSTFCGTPNYIAPEILRGEEYGFSVDWWALGVLMFEMMAGRSPFDIITDNPDMNTEDYLFQVILEKPIRIPRFLSVKASHVLKGFLNKDPKERLGCRPQTGFSDIKSHAFFRSIDWDLLEKKQTLPPFQPQITDDYGLDNFDTQFTSEPVQLTPDDEDVIKRIDQSEFEGFEYINPLLLSAEESV | – | – | – | – | no change |
